Measurements from paper PMC7141136, “Ohr and OhrR Are Critical for Organic Peroxide Resistance and Symbiosis in Azorhizobium caulinodans ORS571”.
Substitutions are numbered along the chain they refer to.

Assays:
Conditions in all cases: protein: recombinant; tags: N-terminal 6xHis (pET-28a); chain copies: 2; label: none (GelRed stain)
OhrR C121S = biological target: T1, OhrR C121S (Azorhizobium caulinodans ORS571, UniProt A8IEZ4 1-144, C121S); assay: EMSA; reducing; 50 mM Tris-HCl pH 8.3, 0.25 M KCl, 2.5 mM DTT, 5 mM MgCl2, 0.05 ug/mL poly(dI-dC), 2.5 mM EDTA, 1% glycerol; 20 nM DNA, 20 uL, 20 min, room temperature; 6% native PAGE in 0.5x TBE
T1 sequence: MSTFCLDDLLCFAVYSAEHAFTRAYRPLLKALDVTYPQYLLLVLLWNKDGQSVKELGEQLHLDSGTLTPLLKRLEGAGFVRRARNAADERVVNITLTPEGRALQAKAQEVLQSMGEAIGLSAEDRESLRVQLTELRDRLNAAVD

OhrR C11S = biological target: T2, OhrR C11S (Azorhizobium caulinodans ORS571, UniProt A8IEZ4 1-144, C11S); assay: as above
T2 sequence: T1 sequence with C11S, S121C

OhrR C11S C121S = biological target: T3, OhrR C11S C121S (Azorhizobium caulinodans ORS571, UniProt A8IEZ4 1-144, C11S;C121S); assay: EMSA; CuOOH; binding not affected; 50 mM Tris-HCl pH 8.3, 0.25 M KCl, 2.5 mM DTT, 5 mM MgCl2, 0.05 ug/mL poly(dI-dC), 2.5 mM EDTA, 1% glycerol; 20 nM DNA, 20 uL, 20 min, room temperature; 6% native PAGE in 0.5x TBE
T3 sequence: T1 sequence with C11S

Measured: binding result

B1: ohr promoter probe (181 bp) (dsDNA)
DNA 1: CAAAGGGTTAGTTTTCCGTTGCGGAAGGTTGGGTGATGTTGACGGTGGTCTGCAAAATAAGTTTGACACAATCAAATTGTGTGCTACTTAAATGGCCATGGAAGCGGCTTGGCCGTTTCTCATCGATTTCTCAAGGCACGAGGATCAAGCGATGTCCGTCGATGTGAAGTACACCACCAAG
DNA 2: CTTGGTGGTGTACTTCACATCGACGGACATCGCTTGATCCTCGTGCCTTGAGAAATCGATGAGAAACGGCCAAGCCGCTTCCATGGCCATTTAAGTAGCACACAATTTGATTGTGTCAAACTTATTTTGCAGACCACCGTCAACATCACCCAACCTTCCGCAACGGAAAACTAACCCTTTG
binds: all assays above
